Assay results as given in US20260209353A1 (BINACEA PHARMA, published 2026).

B1: Clone 1D7 VHH (secreted VHH in TG1 supernatant) (VHH)
VHH: QVQLQESGGGLVQAGGSLRLSCAASGFTFDDYAIGWFRQAPGKEREGVSCISNIDGRTYYADSVKGRFTISSDNAKNTVYLQMNSLKPEDTAVYYCAAEGLHSCRDLYYGMDYWGKGTLVTVSS
notes: Expressed from phagemid pADL-23c
B2: Clone 2E7 VHH (secreted VHH in TG1 supernatant) (VHH)
VHH: QVQLQESGGGLVQAGGSLRLSCAASGVPFDDYAIGWFRQAPGKEREGVSCISNIDGSTYYADSVKGRFTISSDNAKNTVYLQMNSLKPEDTAVYYCAAEGLHSCRDLYYGMDYWGKGTLVTVSS
notes: as for B1
B3: Clone 1E2 VHH (secreted VHH in TG1 supernatant) (VHH)
VHH: QVQLQESGGGLVQAGGSLRLSCAASGFTFDDYAIGWFRQAPGKEREGVSCISNIDGRTYYADSVKGRFTISSDNAKNTVYLQMNSLKPEDTAVYYCAAEGLHPCRDLYYGMDYWGKGTLVTVSS
notes: as for B1
B4: Clone 2B10 VHH (secreted VHH in TG1 supernatant) (VHH)
VHH: QVQLVESGGGLVQAGGSLRLSCAASGFTFDDYAIGWFRQAPGKEREGVSCISNIDGSTYYADSVKGRFTISSDNAKNTVYLQMNSLKPEDTAVYYCAAEGLRSCRDLYYGMDYWGKGTLVTVSS
notes: as for B1
B5: Clone 2G1 VHH (secreted VHH in TG1 supernatant) (VHH)
VHH: QVQLQESGGGLVQAGGSLRLSCAASGFTFDDYAIGWFRQAPGKEREGVSCISSIDGSTYYADSVKGRFTISRDNDKNTVYLQMNSLKPEDTAVYYCTAEGLHSCRDLYYGMDYWGKGTQVTVSS
notes: as for B1
B6: Clone 1B3 VHH (secreted VHH in TG1 supernatant) (VHH)
VHH: QVQLQESGGGLVQAGGSLRLSCAASGFTFDDYAIGWFRQAPGKEREGVSCISNIDGHTYYADSVKGRFTISSDNAKNTVYLQMNSLKPEDTAVYYCAAEGLHSCKDLYYGMDYWGKGTLVTVSS
notes: as for B1
B7: Clone 1B1 VHH (secreted VHH in TG1 supernatant) (VHH)
VHH: QVQLQESGGGLVQAGGSLKLSCAASGFTFNDYAIGWFPQAPGKEREGVSCIINIDGSTYYADSVKGRFPISSDNAKNTVYLQMNSLKPEDTAVYYCAAEGLHSCRDLYYGMDYWGKGTLVTVSS
notes: as for B1
B8: Clone 2G7 VHH (secreted VHH in TG1 supernatant) (VHH)
VHH: QVKLEESGGGLVQAGGSLRLSCAASGFTFDDYAIGWFRQAPGKEREGVSCISNIDGSTYYADSVKGRFTISSDNAKNTVYLQMNSLKPEDTAVYYCAAEGLHSCRDLYYGMDHWGKGTLVTVSS
notes: as for B1
B9: Clone 3C3 VHH (secreted VHH in TG1 supernatant) (VHH)
VHH: QVQLVDSGGGLVQAGGSLRVSCAASGLTVSSEHMGWFRQAPGKQREFVAAISGNGGSTYYADSVKGRFTISRDNAKNTVYLQMNSLKPEDTAVYTCAADRQVWRVTSYHDYDYDSWGQGTLVTVSS
notes: as for B1

These binders were tested against T1, hu-CD8A ECD (recombinant, coated on ELISA plates) (human, UniProt P01732 22-182) (assay: ELISA, VHH supernatants on hu-CD8A ECD coated plates).
T1 construct: also called Human CD8A ECD; not shown: C-terminal (His)x6 or Fc tag
T1 sequence (P01732 22-182): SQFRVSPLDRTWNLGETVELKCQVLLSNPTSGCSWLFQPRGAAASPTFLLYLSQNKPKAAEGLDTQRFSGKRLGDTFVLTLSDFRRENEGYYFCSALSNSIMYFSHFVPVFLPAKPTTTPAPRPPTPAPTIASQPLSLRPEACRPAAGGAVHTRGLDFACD
B1: binds.
B2: binds.
B3: binds.
B4: binds.
B5: binds.
B6: binds.
B7: binds.
B8: binds.
B9: binds.
